US6723833
Where two headings read alike, the source gives them in different places. Values belong to the molecule of their own block, whether it stands above or below them.

Experiments:
[1] = target: human IgE bound to FcεRI (IgE-loaded FcεRI α-chain on CHO 3D10 cells) (human) (UniProt P01854); test: FACS on IgE-loaded CHO 3D10 cells (FIG. 4)
[2] = target: human IgE bound to FcεRI (IgE-loaded FcεRI α-chain on CHO 3D10 cells) (human) (UniProt P01854); test: FACS on IgE-loaded CHO 3D10 cells (FIG. 4); isotype control
[3] = target: membrane IgE on U266B1 cells (human) (UniProt P01854); test: FACS on U266B1 cells (membrane IgE+)
membrane IgE on U266B1 cells (human), sequence (P01854 whole entry, one chain of several): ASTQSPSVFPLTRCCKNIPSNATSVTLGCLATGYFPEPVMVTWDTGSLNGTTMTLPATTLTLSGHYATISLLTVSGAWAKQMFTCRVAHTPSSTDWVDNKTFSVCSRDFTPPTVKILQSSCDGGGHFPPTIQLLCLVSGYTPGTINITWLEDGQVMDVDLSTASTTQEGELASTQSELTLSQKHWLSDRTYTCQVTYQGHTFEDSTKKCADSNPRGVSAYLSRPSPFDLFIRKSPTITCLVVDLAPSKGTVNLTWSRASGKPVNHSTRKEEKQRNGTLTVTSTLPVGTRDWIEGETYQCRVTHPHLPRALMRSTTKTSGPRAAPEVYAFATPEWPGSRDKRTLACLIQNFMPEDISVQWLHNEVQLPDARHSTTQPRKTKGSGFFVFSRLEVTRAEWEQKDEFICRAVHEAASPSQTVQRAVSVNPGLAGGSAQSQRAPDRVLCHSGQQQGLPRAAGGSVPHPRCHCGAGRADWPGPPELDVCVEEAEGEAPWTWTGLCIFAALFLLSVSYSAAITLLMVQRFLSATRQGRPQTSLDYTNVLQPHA

[4] = target: human IgE bound to FcεRI (IgE-loaded FcεRI α-chain on CHO 3D10 cells) (human) (UniProt P01854); test: cell-based or functional assay
[5] = target: human IgE (affinity purified from U266B1 myeloma culture supernatant) (human) (UniProt P01854); test: soluble receptor assay: inhibition of biotin-IgE binding to plate-coated FcεRI α-chain IgG chimera
human IgE (affinity purified from U266B1 myeloma culture supernatant) (human), sequence (P01854 whole entry, form in doubt, one chain of several): as the sequence (P01854 whole entry, one chain of several) above

[6] = target: human IgE (affinity purified from U266B1 myeloma culture supernatant) (human) (UniProt P01854); test: equilibrium binding of 125I-IgE, Scatchard analysis
[7] = target: human IgE (affinity purified from U266B1 myeloma culture supernatant) (human) (UniProt P01854); test: soluble receptor assay: inhibition of biotin-IgE binding to plate-coated FcεRI α-chain IgG chimera; remark: listed apart in the source

human IgE bound to FcεRI (IgE-loaded FcεRI α-chain on CHO 3D10 cells) (human), sequence (P01854 whole entry, chain 1 of 2): as the sequence (P01854 whole entry, one chain of several) above
human IgE bound to FcεRI (IgE-loaded FcεRI α-chain on CHO 3D10 cells) (human), sequence (P12319 26-257, chain 2 of 2, further chain): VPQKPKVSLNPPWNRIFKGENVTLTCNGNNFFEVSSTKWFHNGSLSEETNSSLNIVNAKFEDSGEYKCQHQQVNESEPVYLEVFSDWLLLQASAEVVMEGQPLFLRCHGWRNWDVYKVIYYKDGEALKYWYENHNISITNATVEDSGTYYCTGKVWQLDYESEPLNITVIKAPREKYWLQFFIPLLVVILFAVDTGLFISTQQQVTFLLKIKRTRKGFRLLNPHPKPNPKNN

mean channel fluorescence at 0.1 µg/ml (mean channel fluorescence) [1]: 7.3
nonspecific background binding [2]: 10%
Molecule: MOPC21 (antibody)

EC50 [3]: 0.15 µg/mL
mean channel fluorescence at 0.1 µg/ml (mean channel fluorescence) [1]: 6.4
PBL histamine release (EC50), IgE-loaded peripheral blood basophils [4]: > 100 µg/mL
IC50 [5]: 0.179 µg/mL
ratio F(ab)-X/F(ab)-2 [5]: 0.03
ratio F(ab)-X/MaE11 [5]: 1
Kd [6]: 30 nM
IC50 [7]: 0.449 µg/mL
ratio Variant X/IgG1-2 [7]: 0.06
ratio Variant X/MaE11 [7]: 1
B1: MaE11 (antibody, mouse IgG1, V domains shown)
VH: DVQLQESGPGLVKPSQSLSLACSVTGYSITSGYSWNWIRQFPGNKLEWMGSITYDGSSNYNPSLKNRISVTRDTSQNQFFLKLNSATAEDTATYYCARGSHYFGHWHFAVWGAGTTVTVSS
VL: DIQLTQSPASLAVSLGQRATISCKASQSVDYDGDSYMNWYQQKPGQPPILLIYAASYLGSEIPARFSGSGSGTDFTLNIHPVEEEDAATFYCQQSHEDPYTFGAGTKLEIK
